Patent US20240043489A1, “Cytokine Prodrugs Comprising a Cleavable Linker” (Trutino Biosciences Inc., priority 2020, published 2024)
Residue numbers refer to the chain shown, from its start. Names and notes keep the numbering of the source. “Also recorded” adds a separate entry of the source. Where two headings read alike, the source gives them in different places.

B1: Construct B (Fc fusion)
chain: APTSSSTSSSTAEAQQQQQQQQQQQQHLEQLLMDLQELLSRMENYRNLKLPRMLTFKFYLPKQATELKDLQCLEDELGPLRHVLDLTQSKSFQLEDAENFISNIRVTVVKLKGSDNTFECQFDDESATVVDFLRRWIAFCQSIISTSPQSGGGGSGGGGGPLGVRGGGGGSGGGGSELCLYDPPEVPNATFKALSYKNGTILNCECKRGFRRLKELVYMRCLGNSWSSNCQCTSNSHDKSRKQVTAQLEHQKEQQTTTDMQKPTQSMHQENLTGHCREPPPWKHEDSKRIYHFVEGQSVHYECIPGYKALQRGPAISICKMKCGKTGWTQPQLTCVDEREHHRFLASEESQGSRNSSPESETSCPITTTDFPQPTETTAMTETFVLTMEYKGCKPCICTVPEVSSVFIFPPKPKDVLTITLTPKVTCVVVDISKDDPEVQFSWFVDDVEVHTAQTQPREEQFNSTFRSVSELPIMHQDWLNGKEFKCRVNSAAFPAPIEKTISKTKGRPKAPQVYTIPPPKEQMAKDKVSLTCMITDFFPEDITVEWQWNGQPAENYKNTQPIMDTDGSYFVYSKLNVQKSNWEAGNTFTCSVLHEGLHNHHTEKSLSHSPGK
B2: Construct GG (Fc fusion)
chain: B1 chain with G153K, G154L, S155W, G156V, G157L, G158P, G159K
B3: Construct II (Fc fusion)
chain: B1 chain with G151L, G152H, G153E, G154R, S155H, G156L, G157N, G158N, G159N
B4: Construct GG: m IL2-SGG-KLWVLPK-MMPcs1-2x(G4S)-mIL2Ra(1-215)-mu IgG1 Fc (Fc fusion)
chain: B1 chain with G153K, G154L, S155W, G156V, G157L, G158P, G159K
B5: Construct II: m IL2-…-MMPcs1-2x(G4S)-mIL2Ra(1-215)-mu IgG1 Fc (Fc fusion)
chain: B1 chain with G151L, G152H, G153E, G154R, S155H, G156L, G157N, G158N, G159N
B6: Construct CC: SEQ ID NO 813: m IL2-2x(GHHPH)-MMPcs1-2x(G4S)-mIL2Ra(1-215)-mu IgG1 Fc (protein)
chain: B1 chain with S150G, G151H, G152H, G153P, G154H, S155G, G156H, G157H, G158P, G159H

How the values were obtained:
fibronectin = fibronectin (Homo sapiens, UniProt P02751); conditions: Note 1, cited from earlier work
[1] = target: collagen (agarose cross-linked to collagen, Sigma); experiment: pulldown on collagen-agarose beads, anti-mouse IL-2 immunoblot, band quantified with iBright
[2] = target: collagen (agarose cross-linked to collagen, Sigma); experiment: pulldown on collagen-agarose beads, anti-mouse IL-2 immunoblot, bound fraction normalized to Construct B
[3] = target: collagen cross-linked to agarose (Sigma); experiment: pulldown with collagen-agarose beads, anti-mouse IL-2 immunoblot quantified with iBright imaging system
HEK-Blue™ IL-2 cells = experiment: HEK-Blue IL2 reporter assay (SEAP, OD630); format: cell-based; conditions: Table 5C
Experimental: Recombinant MMP9 and/or MMP2 (R&D Systems) was first activated with p-aminophenylmercuric acetate and this activated protease or equivalent amount of activating solution without the protease was used to digest or mock digest the fusion protein for 1 hr, 2 hr, 4 hr and overnight (18-22 hr) at 37 C. Cleavage assays are set up in TCNB buffer: 50 mM Tris, 10 mM CaCl2), 150 mM NaCl, 0.05% Brij-35 (w/v), pH 7.5. Digested protein was aliquoted and stored at −80° C. prior to testing. Aliquots of digests were subsequently analyzed by SDS-PAGE followed by Western blotting to evaluate the extent of cleavage. Digests were also assessed in functional assays such as CTLL-2 proliferation and HEK-Blue Interleukin reporter assays. As shown in FIGS. 2A-E, essentially complete cleavage by MMP9 protease of the fusion proteins with functional site is seen after overnight incubation. In contrast, proteins containing a scrambled MMP cleavage site are not cut (FIG. 2E). HEK-Blue™ IL-2 cells are specifically designed to monitor the activation of the JAK-STAT pathway induced by IL-2. Indeed, stimulation with human or murine IL-2 triggers the JAK/STAT5 pathway and induces secreted embryonic alkaline phosphatase (SEAP) production. SEAP can be readily monitored when using QUANTI-Blue™, a SEAP detection medium. These cells respond to human and murine IL-2. For the HEK Blue assay, untreated and digested samples are titrated and added to 50 000 HEK Blue cells per well in 200 ul medium in a 96-well plate and incubated at 37C in 5% CO2 for 20-24 hr. The following day, levels of SEAP are measured by adding 20 uL of cell supernatant to QuantiBlue reagent, followed by 1-3 h incubation at 37C and reading absorbance at 630 nm. FIGS. 3C-J, 3Q-Y and Table 5B-5C show results obtained from IL2 fusion proteins tested in HEK Blue IL2 assay.

heparin = experiment: IL-2 fusion protein plate binding assay to Heparin-BSA conjugate
Experimental: 96-well plates were coated with 25 ug/mL of Heparin-BSA conjugate (provided by Dr. Mueller, Boerhinger Ingelheim) or control BSA for 18-22 h at room temperature on shaker (350 rpm). After washing, wells are blocked with PBS-0.05% Tween 20/1% BSA for 90 min, then fusion proteins are titrated in 1% BSA/PBS-0.05% Tween 20 pH 7.5 and/or pH 6 and added for 2 hr at room temperature with shaking. After washing, an anti-mouse IL-2 biotin-labelled detection antibody (JES6-5H4, ThermoFisher) is added and binding is detected using Ultra Strepavidin HIRP (ThermoFisher). The plate was developed by adding the chromogenic tetramethylbenzidine substrate (Ultra TMB, ThermoFisher). The reaction is stopped by addition of 0.5M H2SO4 and the absorbance is read at 450-650 nm.

[4] = Full-length drug levels in serum by ELISA; format: in vivo, mice; conditions: Construct CC 20 mg/kg; 24 hrs after dosing
Experimental: (§1) We developed an ELISA assay to detect and quantify fusion proteins comprising IL-2 and IL-2Rα moieties. Wells of a 96-well plate are coated overnight with 100 uL of a rat anti-mouse IL-2 monoclonal antibody (JES6-1A12; ThermoFisher) at […] in PBS. After washing, wells are blocked with TBS/0.05% Tween 20/1% BSA, then fusion proteins and/or unknown biological samples are added for 1 hr at room temperature. After washing, an anti-mouse IL-2Rα biotin-labelled detection antibody (BAF2438, R&D systems) is added and binding is detected using Ultra Strepavidin HRP (ThermoFisher). The ELISA plate was developed by adding the chromogenic tetramethylbenzidine substrate (Ultra TMB, ThermoFisher). The reaction is stopped by addition of 0.5M H2SO4 and the absorbance is read at 450-650 nm.
Additional serum samples collected at Day 17 (Construct B 20 mg/kg) and Day 21 (Construct Y 20 mg/kg), 4 days and 8 days respectively after the last IV injection, were assayed for full-length IL-2 fusion drug.

[5] = Drug and IL-2 levels in B16F10 tumor lysates by ELISA; format: in vivo, mice
Experimental: as §1
We developed a second ELISA assay to detect and quantify mouse IL-2 and/or fusion proteins comprising an IL-2 moiety. Wells of a 96-well plate are coated overnight with 100 uL of a rat anti-mouse IL-2 monoclonal antibody (JES6-1A12; ThermoFisher) at […] in PBS. After washing, wells are blocked with TBS/0.05% Tween 20/1% BSA, then fusion proteins and/or unknown biological samples are added for 1 hr at room temperature. After washing, an anti-mouse IL-2 biotin-labelled detection antibody (JES6-5H4, ThermoFisher) is added and binding is detected using Ultra Strepavidin HRP (ThermoFisher). The ELISA plate was developed by adding the chromogenic tetramethylbenzidine substrate (Ultra TMB, ThermoFisher). The reaction is stopped by addition of 0.5M H2SO4 and the absorbance is read at 450-650 nm. This assay is able to simultaneously detect both free mouse IL-2 as well as mouse IL-2 in the context of pro-drug fusion proteins.
We quantified levels of full-length IL2-IL2Ra fusion proteins and IL-2 in tumor samples collected during pre-clinical efficacy studies comparing Construct B and retention linker IL-2 fusion drugs (see example 17).
Tumors (n=3 per group) were collected 24 h after the last dose injection, flash frozen and stored at −80C until further processing. Tumor lysates were generated using tissue extraction reagent (ThermoFisher) supplemented with protease and phosphatase inhibitors and standard techniques and protein concentrations were determined using the BCA assay (Pierce).
Lysates were tested with in-house ELISAs to measure full-length IL-2 fusion proteins (IL-2 capture/IL-2Rα detection) and IL-2 fusion proteins+free IL-2 (IL-2 capture/IL-2 detection). Free IL-2 levels in tumor were calculated by subtracting drug levels from the drug+IL-2 data set. Results were normalized to 1 mg of tumor lysate and mean values are shown in FIG. 15C-H. Levels of Construct CC (20 mg/kg dose) in tumor are roughly 3-fold higher compared to Construct B levels, despite Construct B being dosed at 40 mg/kg (FIG. C). […] Likewise, IL-2 levels in Construct CC, Construct GG and Construct II treated tumors are elevated compared to Construct B treated tumors (FIG. 15E/H). This implies that next generation retention linker technology is able to retain in TME both full-length drug and released IL-2 post-cleavage.

[6] = pH-sensitive sequences derived from thrombospondin

Sequence of fibronectin (P02751 32-2477, species assumed): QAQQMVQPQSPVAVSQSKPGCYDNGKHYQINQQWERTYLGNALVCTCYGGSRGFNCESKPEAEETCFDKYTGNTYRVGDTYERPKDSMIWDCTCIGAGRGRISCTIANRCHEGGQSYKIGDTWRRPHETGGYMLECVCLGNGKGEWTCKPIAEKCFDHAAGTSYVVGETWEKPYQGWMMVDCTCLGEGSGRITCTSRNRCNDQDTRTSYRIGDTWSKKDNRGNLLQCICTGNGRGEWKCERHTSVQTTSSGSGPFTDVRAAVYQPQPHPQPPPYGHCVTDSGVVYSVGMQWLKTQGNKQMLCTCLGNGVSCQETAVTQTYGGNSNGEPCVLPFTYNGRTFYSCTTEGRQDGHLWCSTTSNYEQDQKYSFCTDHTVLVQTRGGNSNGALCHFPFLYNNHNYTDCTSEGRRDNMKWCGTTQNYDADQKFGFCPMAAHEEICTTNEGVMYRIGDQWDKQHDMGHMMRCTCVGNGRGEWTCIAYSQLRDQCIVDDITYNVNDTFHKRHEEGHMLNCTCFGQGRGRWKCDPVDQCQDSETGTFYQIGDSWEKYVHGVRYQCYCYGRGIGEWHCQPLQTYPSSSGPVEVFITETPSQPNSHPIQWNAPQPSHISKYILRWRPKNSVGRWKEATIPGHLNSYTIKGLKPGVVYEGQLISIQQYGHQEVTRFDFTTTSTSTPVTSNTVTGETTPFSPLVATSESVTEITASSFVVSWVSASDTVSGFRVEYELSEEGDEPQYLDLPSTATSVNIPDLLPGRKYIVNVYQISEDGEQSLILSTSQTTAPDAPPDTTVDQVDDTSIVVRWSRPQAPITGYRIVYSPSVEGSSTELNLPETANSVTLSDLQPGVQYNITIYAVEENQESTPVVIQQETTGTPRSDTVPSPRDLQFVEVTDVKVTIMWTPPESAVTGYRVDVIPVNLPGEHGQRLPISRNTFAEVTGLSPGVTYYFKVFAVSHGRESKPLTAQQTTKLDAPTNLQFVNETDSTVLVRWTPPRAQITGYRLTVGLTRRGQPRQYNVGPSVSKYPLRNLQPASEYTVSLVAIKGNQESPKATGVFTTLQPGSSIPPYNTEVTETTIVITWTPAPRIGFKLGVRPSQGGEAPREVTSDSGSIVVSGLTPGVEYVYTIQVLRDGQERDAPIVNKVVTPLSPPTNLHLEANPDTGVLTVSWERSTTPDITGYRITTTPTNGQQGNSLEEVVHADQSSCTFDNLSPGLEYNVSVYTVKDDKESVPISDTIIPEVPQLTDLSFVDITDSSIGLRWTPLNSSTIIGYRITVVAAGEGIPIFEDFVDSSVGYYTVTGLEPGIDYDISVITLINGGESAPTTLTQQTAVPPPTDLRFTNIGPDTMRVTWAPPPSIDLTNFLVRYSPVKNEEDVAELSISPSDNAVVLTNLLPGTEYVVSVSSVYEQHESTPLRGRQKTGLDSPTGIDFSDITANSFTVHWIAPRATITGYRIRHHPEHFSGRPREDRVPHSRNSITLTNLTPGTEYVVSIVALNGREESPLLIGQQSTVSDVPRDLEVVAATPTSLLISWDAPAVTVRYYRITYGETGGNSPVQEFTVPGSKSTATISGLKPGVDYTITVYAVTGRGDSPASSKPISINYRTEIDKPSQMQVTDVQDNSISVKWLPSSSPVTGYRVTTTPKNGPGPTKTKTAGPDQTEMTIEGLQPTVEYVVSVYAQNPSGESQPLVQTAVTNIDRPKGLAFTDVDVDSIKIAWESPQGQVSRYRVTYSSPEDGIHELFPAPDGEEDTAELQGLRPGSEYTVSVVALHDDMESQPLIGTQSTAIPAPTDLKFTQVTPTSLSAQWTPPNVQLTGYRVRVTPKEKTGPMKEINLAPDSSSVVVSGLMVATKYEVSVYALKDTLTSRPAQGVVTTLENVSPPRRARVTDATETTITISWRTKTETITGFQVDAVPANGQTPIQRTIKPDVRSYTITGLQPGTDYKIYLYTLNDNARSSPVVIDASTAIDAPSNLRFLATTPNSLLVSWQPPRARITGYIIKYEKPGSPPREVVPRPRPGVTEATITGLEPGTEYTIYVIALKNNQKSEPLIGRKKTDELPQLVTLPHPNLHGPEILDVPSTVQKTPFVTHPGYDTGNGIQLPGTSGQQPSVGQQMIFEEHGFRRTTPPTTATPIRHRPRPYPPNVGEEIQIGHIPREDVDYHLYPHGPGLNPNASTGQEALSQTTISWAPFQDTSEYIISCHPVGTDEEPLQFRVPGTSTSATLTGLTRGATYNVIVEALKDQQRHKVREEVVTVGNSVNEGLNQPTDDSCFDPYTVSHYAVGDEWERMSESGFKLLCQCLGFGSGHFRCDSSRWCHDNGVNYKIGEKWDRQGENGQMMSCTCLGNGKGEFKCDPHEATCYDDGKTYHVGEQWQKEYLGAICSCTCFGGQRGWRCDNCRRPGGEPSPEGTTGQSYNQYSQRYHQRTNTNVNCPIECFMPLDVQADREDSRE

Molecule | affinity (Binds to Fibronectin) (fibronectin; [6]) | Bound [1] | Bound (% input) [1] [%] | Normalized (fold (relative to Construct B)) [2] | further results
654 (KRFKQDGGWSHWSPWSS) [Construct 654] | derived from thrombospondin (low affinity) | – | – | – | –
680 (QFGGHNSVDFEEDT) [Construct 680] | – | – | – | – | affinity (Binds to Fibronectin) (fibronectin; FAB D3 fragments): non-binding control
656 (GGWSHWSPWSS) [Construct 656] | derived from thrombospondin (medium affinity) | – | – | – | –
655 (KRFKQDGGWSHWSP) [Construct 655] | derived from thrombospondin (medium affinity) | – | – | – | –
B1 | – | 2310 | 0.3 | 1 | –
B2 | – | 5190 | 0.7 | 2.5 | –
B3 | – | 2280 | 0.4 | 1.4 | –
B4 | – | – | – | – | fraction bound (% of input) [3]: < 1 % of input
B5 | – | – | – | – | fraction bound (% of input) [3]: < 1 % of input
B6 | – | – | – | – | EC50 (HEK-Blue™ IL-2 cells; cleaved with MMP9, read-out: +MMP EC50): 13 pM; EC50 (HEK-Blue™ IL-2 cells; uncleaved, read-out: −MMP EC50): 660 pM; EC50 (heparin; acidic pH): 10000 pM; heparin binding (qualitative) (heparin; pH 6 vs pH 7.5, plate assay): bind heparin in dose-dependent manner and with higher affinity than Construct B; also recorded: preferentially binds heparin at acidic pH; circulating drug levels compared with Construct B (40 mg/kg) [4]: roughly similar; drug levels in tumor relative to Construct B (40 mg/kg) ([5]; Construct CC 20 mg/kg, tumors 24 h after last dose): roughly 3 fold; IL-2 levels in treated tumors compared to Construct B treated tumors ([5]; free IL-2 calculated by subtraction, 24 h after last dose): elevated
